Our source for the EC50, neutralization of Con1 HCVpp entry (Huh-7.5, luciferase), EC50, neutralization of J6 HCVpp entry (Huh-7.5, luciferase) and EC50 (read off the curve) values is patent publication US20120027722A1.

Experiment [1] concerns the target HCV E1E2 glycoproteins, genotype 1b (Con1) (Hepatitis C virus genotype 1b (Con1)) (UniProt Q9WMX2). As to the kind of experiment: cell-based or functional assay.
The target of experiment [2] is HCV E1E2 glycoproteins, genotype 2a (J6) (Hepatitis C virus genotype 2a (J6)). As to the kind of experiment: cell-based or functional assay.
Experiment [3] concerns the target Peptide D3. The following applies: remark: other sources report otherwise.

Sequence of HCV E1E2 glycoproteins, genotype 1b (Con1) (Hepatitis C virus genotype 1b (Con1)) (Q9WMX2 192-383 limits assumed, chain 1 of 2): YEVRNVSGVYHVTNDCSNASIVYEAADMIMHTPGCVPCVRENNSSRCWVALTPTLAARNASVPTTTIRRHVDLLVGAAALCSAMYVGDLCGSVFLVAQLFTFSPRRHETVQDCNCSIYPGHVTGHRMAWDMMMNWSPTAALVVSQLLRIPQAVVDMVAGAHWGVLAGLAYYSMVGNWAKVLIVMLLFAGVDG
Sequence of HCV E1E2 glycoproteins, genotype 1b (Con1) (Hepatitis C virus genotype 1b (Con1)) (Q9WMX2 384-746 limits assumed, chain 2 of 2): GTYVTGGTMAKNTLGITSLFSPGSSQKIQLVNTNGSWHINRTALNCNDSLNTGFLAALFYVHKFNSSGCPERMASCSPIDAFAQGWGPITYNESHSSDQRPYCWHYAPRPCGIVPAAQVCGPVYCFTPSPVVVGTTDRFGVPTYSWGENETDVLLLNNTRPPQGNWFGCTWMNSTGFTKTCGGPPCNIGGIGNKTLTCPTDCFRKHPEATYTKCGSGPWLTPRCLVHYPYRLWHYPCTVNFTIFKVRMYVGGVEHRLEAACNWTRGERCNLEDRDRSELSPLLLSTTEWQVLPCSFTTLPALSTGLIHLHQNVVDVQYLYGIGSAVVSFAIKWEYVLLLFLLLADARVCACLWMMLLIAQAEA

B1: AP33 antibody (as used in Example 2) (antibody, V domains shown)
VH: EVQLQESGPSLVKPSQTLSLTCSVTGDSITSGYWNWIRKFPGNKLEYMGYISYSGSTYYNLSLRSRISITRDTSKNQYYLQLNSVTTEDTATYYCALITTTTYAMDYWGQGTSVTVS
VL: NIVLTQSPVSLAVSLGQRATISCRASESVDGYGNSFLHWFQQKPGQPPKLLIYLASNLNSGVPARFSGSGSRTDFTLTIDPVEADDAATYYCQQNNVDPWTFGGGTKLEIK
With B1, the EC50, neutralization of Con1 HCVpp entry (Huh-7.5, luciferase) in experiment [1] amounted to 1.42 µg/mL. Also, the EC50, neutralization of J6 HCVpp entry (Huh-7.5, luciferase) in experiment [2] is 2.07 µg/mL.

B2: chimeric AP33 antibody (Vh/Vl) (antibody, V domains shown)
VH: EVQLQESGPSLVKPSQTLSLTCSVTGDSITSGYWNWIRKFPGNKLEYMGYISYSGSTYYNLSLRSRISITRDTSKNQYYLQLNSVTTEDTATYYCALITTTTYAMDYWGQGTSVTVS
VL: NIVLTQSPVSLAVSLGQRATISCRASESVDGYGNSFLHWFQQKPGQPPKLLIYLASNLNSGVPARFSGSGSRTDFTLTIDPVEADDAATYYCQQNNVDPWTFGGGTKLEIK
For orientation: EC50 (read off the curve) means the midpoint of the concentration-response curve. The low end stands for an effect from little substance, the high end for a need for much substance. Molecule B2 registered a concentration for a half-maximal effect (EC50 (read off the curve)) in experiment [3] of 0.02 µg/mL.
